Data reported in the supplement of paper PMC10567573.

B1: CAMK2D (parent)
chain: IVRLHDSISEEGFHYLVFDLVTGG

Variants of: B1
Assay: protein stability index of a GFP-peptide fusion (GPS, HEK-293T) (PSI 1-6); higher = more stable
Conditions: c terminus: a fixed tail appended
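Note: lentivirally expressed fusions sorted by FACS into six bins by GFP to DsRed ratio, PSI derived from sequencing read proportions per bin multiplied by bin number.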

Row | Variant | protein stability index
1 | TVRLHDSISEEGFHYLVFDLVTGG [I1T] | 2.07
2 | KVRLHDSISEEGFHYLVFDLVTGG [I1K] | 2.05
3 | GVRLHDSISEEGFHYLVFDLVTGG [I1G] | 1.94
4 | FVRLHDSISEEGFHYLVFDLVTGG [I1F] | 1.06
5 | EVRLHDSISEEGFHYLVFDLVTGG [I1E] | 2.24
6 | MVRLHDSISEEGFHYLVFDLVTGG [I1M] | 3.44
7 | PVRLHDSISEEGFHYLVFDLVTGG [I1P] | 1.25
8 | IVRLHDSISEEGFHYDVFDLVTGG [L16D] | 1.63
9 | IVRLHDSISEEGFHYSVFDLVTGG [L16S] | 1.55
10 | IVRLHDSISEEGFHYIVFDLVTGG [L16I] | 2.66
11 | IVRLHDSISEEGFHYEVFDLVTGG [L16E] | 1.57
12 | IVRLHDSISEEGFHYHVFDLVTGG [L16H] | 1.39
13 | IVRLHDSISEEGFHYRVFDLVTGG [L16R] | 2.51
14 | IVRLHDSISEEGFHYNVFDLVTGG [L16N] | 1.5
15 | IVRLHDSIFEEGFHYLVFDLVTGG [S9F] | 1.94
16 | IVRLHDSIPEEGFHYLVFDLVTGG [S9P] | 5.65
17 | IVRLHDSINEEGFHYLVFDLVTGG [S9N] | 2.94
18 | IVRLHDSIGEEGFHYLVFDLVTGG [S9G] | 1.99
19 | IVRLHDSISEEGSHYLVFDLVTGG [F13S] | 3.27
20 | IVRLHDSISEEGHHYLVFDLVTGG [F13H] | 1.62
21 | IVRLHDSISEEGDHYLVFDLVTGG [F13D] | 1.91
22 | IVRLHDSISEEGAHYLVFDLVTGG [F13A] | 1.76
23 | IVRLHDSISEEGMHYLVFDLVTGG [F13M] | 2.71

Row | Variant | protein stability index
24 | IVRLHDSISEEGQHYLVFDLVTGG [F13Q] | 1.37
25 | IVRLHDSISEEVFHYLVFDLVTGG [G12V] | 3.05
26 | IVRLHDSISEEEFHYLVFDLVTGG [G12E] | 2.48
27 | IVRLHDSISEEIFHYLVFDLVTGG [G12I] | 2.16
28 | IVRLHDSISEEPFHYLVFDLVTGG [G12P] | 2.31
29 | IVRLHDSISEEWFHYLVFDLVTGG [G12W] | 3.89
30 | IVRLHDSISEENFHYLVFDLVTGG [G12N] | 2.04
31 | IVRLHDSISEEAFHYLVFDLVTGG [G12A] | 2.25
32 | IVRLHDSISEEGFHYLVFDLYTGG [V21Y] | 3.1
33 | IVRLHDSISEEGFHYLVFDLLTGG [V21L] | 2.71
34 | IVRLHDSISEEGFHYLVFDLHTGG [V21H] | 2
35 | IVRLHDSISEEGFHYLVFDLPTGG [V21P] | 2.41
36 | IVRLHDSISEEGFHYLVFDLMTGG [V21M] | 1.93
37 | IVRLHDSISEEGFHYLVFDLKTGG [V21K] | 1.57
38 | IVRLHDSISEEGFHYLVFDLATGG [V21A] | 1.11
39 | IVRLHDSISEEGFHYLVFDLVCGG [T22C] | 3.58
40 | IVRLHDSISEEGFHYLVFDLVNGG [T22N] | 4.16
41 | IVRLHDSISEEGFHYLVFDLVHGG [T22H] | 2.24
42 | IVRLHDSISEEGFHYLVFDLVEGG [T22E] | 2.96
43 | IVRLHDSISEEGFHYLVFDLVIGG [T22I] | 2.22
44 | IVRLHDSISEEGFHYLVFDQVTGG [L20Q] | 2.52
45 | IVRLHDSISEEGFHYLVFDTVTGG [L20T] | 2.27
46 | IVRLHDSISEEGFHYLVFDDVTGG [L20D] | 1.67

Row | Variant | protein stability index
47 | IVRLHDSISEEGFHYLVFDVVTGG [L20V] | 3.87
48 | IVRLHDSISEEGFHYLVFDAVTGG [L20A] | 2.13
49 | IVRLHDSISEEGFHYLVFDKVTGG [L20K] | 2.41
50 | IVRLHDSISEEGFHYLVFDRVTGG [L20R] | 2.04
51 | IVRLHDSISEEGFHYLVFDYVTGG [L20Y] | 2.67
52 | IVRLHDSISEEGFHYLVFDMVTGG [L20M] | 3.24
53 | IVRLHDSISEEGFHYLVFDLVTLG [G23L] | 2.92
54 | IVRLHDSISEEGFHYLVFDLVTWG [G23W] | 2.89
55 | IVRLHDSISEEGFHYLVFDLVTCG [G23C] | 4.08
56 | IVRLHDSISEEGFHYLVFDLVTPG [G23P] | 3.1
57 | IVRLHDSISEEGFHYLVFDLVTEG [G23E] | 3.03
58 | IVRLHDSISEEGFHYLVFDLVTIG [G23I] | 2.57
59 | IVRLHDSISEEGFHYLVFDLVTNG [G23N] | 2.49
60 | IVRLHPSISEEGFHYLVFDLVTGG [D6P] | 4.25
61 | IVRLHASISEEGFHYLVFDLVTGG [D6A] | 3.03
62 | IVRLHDSISEEGFPYLVFDLVTGG [H14P] | 2.79
63 | IVRLHDSISEEGFEYLVFDLVTGG [H14E] | 1.83
64 | IVRLHDSYSEEGFHYLVFDLVTGG [I8Y] | 3.84
65 | IVRLHDSNSEEGFHYLVFDLVTGG [I8N] | 3.02
66 | IVRLHDSGSEEGFHYLVFDLVTGG [I8G] | 1.64
67 | IVRLHDSESEEGFHYLVFDLVTGG [I8E] | 1.44
68 | IVRLHDSSSEEGFHYLVFDLVTGG [I8S] | 3.33
69 | IVRLHDSASEEGFHYLVFDLVTGG [I8A] | 2.21

Row | Variant | protein stability index
70 | IVRLHDSTSEEGFHYLVFDLVTGG [I8T] | 2.61
71 | IVRLHDSCSEEGFHYLVFDLVTGG [I8C] | 2.85
72 | IVRLRDSISEEGFHYLVFDLVTGG [H5R] | 2.39
73 | IVRLKDSISEEGFHYLVFDLVTGG [H5K] | 4.72
74 | IVRLFDSISEEGFHYLVFDLVTGG [H5F] | 3.15
75 | IVRLNDSISEEGFHYLVFDLVTGG [H5N] | 2.33
76 | IVRLYDSISEEGFHYLVFDLVTGG [H5Y] | 3.23
77 | IVRLSDSISEEGFHYLVFDLVTGG [H5S] | 3.02
78 | IVRLCDSISEEGFHYLVFDLVTGG [H5C] | 3.23
79 | IVRLIDSISEEGFHYLVFDLVTGG [H5I] | 3.99
80 | IVRLHDSISERGFHYLVFDLVTGG [E11R] | 3.9
81 | IVRLHDSISEAGFHYLVFDLVTGG [E11A] | 2.79
82 | IVRLHDSISETGFHYLVFDLVTGG [E11T] | 2.08
83 | IVRLHDSISELGFHYLVFDLVTGG [E11L] | 3.7
84 | IVRLHDSISEEGFHRLVFDLVTGG [Y15R] | 1.21
85 | IVRLHDSISEEGFHHLVFDLVTGG [Y15H] | 1.2
86 | IVRLHDSISEEGFHFLVFDLVTGG [Y15F] | 2.63
87 | IVRLHDSISEEGFHNLVFDLVTGG [Y15N] | 2.46
88 | IVRLHDSISEEGFHILVFDLVTGG [Y15I] | 2.54
89 | IVRLHDSISEEGFHYLPFDLVTGG [V17P] | 2.04
90 | IVRLHDSISEEGFHYLFFDLVTGG [V17F] | 2.39
91 | IVRLHDSISEEGFHYLHFDLVTGG [V17H] | 2.93
92 | IVRLHDSISEEGFHYLEFDLVTGG [V17E] | 1.69

Row | Variant | protein stability index
93 | IVRLHDSISEEGFHYLWFDLVTGG [V17W] | 2.39
94 | IVRLHDSISEEGFHYLTFDLVTGG [V17T] | 1.75
95 | IVRLHDSISEEGFHYLAFDLVTGG [V17A] | 2.78
96 | IVRLHDSISEEGFHYLNFDLVTGG [V17N] | 1.85
97 | IVREHDSISEEGFHYLVFDLVTGG [L4E] | 1.69
98 | IVRWHDSISEEGFHYLVFDLVTGG [L4W] | 1.57
99 | IVRPHDSISEEGFHYLVFDLVTGG [L4P] | 2.39
100 | IVRQHDSISEEGFHYLVFDLVTGG [L4Q] | 1.69
101 | IVRFHDSISEEGFHYLVFDLVTGG [L4F] | 2.4
102 | IVRKHDSISEEGFHYLVFDLVTGG [L4K] | 3.71
103 | IVRSHDSISEEGFHYLVFDLVTGG [L4S] | 1.9
104 | IVRLHDSISEEGFHYLVVDLVTGG [F18V] | 4.52
105 | IVRLHDSISEEGFHYLVHDLVTGG [F18H] | 1.63
106 | IVRLHDSISEEGFHYLVGDLVTGG [F18G] | 2
107 | IVRLHDSISEEGFHYLVEDLVTGG [F18E] | 2.33
108 | IVRLHDSISEEGFHYLVNDLVTGG [F18N] | 2.84
109 | IVRLHDSISEEGFHYLVDDLVTGG [F18D] | 2.67
110 | IVRLHDSISEEGFHYLVQDLVTGG [F18Q] | 1.33
111 | IVRLHDSISEEGFHYLVPDLVTGG [F18P] | 2.13
112 | IVRLHDSISEEGFHYLVRDLVTGG [F18R] | 1.79
113 | IVRLHDSISEEGFHYLVTDLVTGG [F18T] | 2.1
114 | IVRLHDSISSEGFHYLVFDLVTGG [E10S] | 2.15
115 | IVRLHDSISFEGFHYLVFDLVTGG [E10F] | 2.4

Row | Variant | protein stability index
116 | IVRLHDSISKEGFHYLVFDLVTGG [E10K] | 2.7
117 | IVRLHDSISIEGFHYLVFDLVTGG [E10I] | 3.06
118 | IVRLHDSISHEGFHYLVFDLVTGG [E10H] | 3.04
119 | IVRLHDSISTEGFHYLVFDLVTGG [E10T] | 3.29
120 | IVRLHDSISNEGFHYLVFDLVTGG [E10N] | 4.11
121 | IVRLHDSISYEGFHYLVFDLVTGG [E10Y] | 2.83
122 | IVRLHDSISMEGFHYLVFDLVTGG [E10M] | 2.53
123 | IVRLHDSISREGFHYLVFDLVTGG [E10R] | 2.65
124 | IVCLHDSISEEGFHYLVFDLVTGG [R3C] | 2.03
125 | IVSLHDSISEEGFHYLVFDLVTGG [R3S] | 1.57
126 | IVVLHDSISEEGFHYLVFDLVTGG [R3V] | 2.23
127 | IVQLHDSISEEGFHYLVFDLVTGG [R3Q] | 2
128 | IVYLHDSISEEGFHYLVFDLVTGG [R3Y] | 2.58
129 | IVRLHDSISEEGFHYLVFDLVTGE [G24E] | 4.45
130 | IVRLHDSISEEGFHYLVFDLVTGM [G24M] | 3.78
131 | IVRLHDSISEEGFHYLVFDLVTGC [G24C] | 2.4
132 | IVRLHDSISEEGFHYLVFDLVTGS [G24S] | 2.88
133 | IVRLHDSISEEGFHYLVFDLVTGK [G24K] | 2.87
134 | IVRLHDSISEEGFHYLVFDLVTGY [G24Y] | 3.88
135 | IVRLHDSISEEGFHYLVFDLVTGD [G24D] | 2.26
136 | IYRLHDSISEEGFHYLVFDLVTGG [V2Y] | 3.12
137 | IDRLHDSISEEGFHYLVFDLVTGG [V2D] | 1.79
138 | IMRLHDSISEEGFHYLVFDLVTGG [V2M] | 1.93

Row | Variant | protein stability index
139 | ITRLHDSISEEGFHYLVFDLVTGG [V2T] | 2.52
140 | IPRLHDSISEEGFHYLVFDLVTGG [V2P] | 1.46
141 | IARLHDSISEEGFHYLVFDLVTGG [V2A] | 2.29
142 | IERLHDSISEEGFHYLVFDLVTGG [V2E] | 2.3
143 | IVRLHDSISEEGFHYLVFYLVTGG [D19Y] | 3.34
144 | IVRLHDSISEEGFHYLVFMLVTGG [D19M] | 3.68
145 | IVRLHDSISEEGFHYLVFWLVTGG [D19W] | 1.91
146 | IVRLHDSISEEGFHYLVFQLVTGG [D19Q] | 2.4
147 | IVRLHDSISEEGFHYLVFPLVTGG [D19P] | 3.21
148 | IVRLHDSISEEGFHYLVFALVTGG [D19A] | 1.87
149 | IVRLHDSISEEGFHYLVFKLVTGG [D19K] | 2.88
150 | IVRLHDSISEEGFHYLVFLLVTGG [D19L] | 2.47
151 | IVRLHDSISEEGFHYLVFSLVTGG [D19S] | 4.24
152 | IVRLHDHISEEGFHYLVFDLVTGG [S7H] | 3.68
153 | IVRLHDWISEEGFHYLVFDLVTGG [S7W] | 2.25
154 | IVRLHDYISEEGFHYLVFDLVTGG [S7Y] | 3.15
155 | IVRLHDNISEEGFHYLVFDLVTGG [S7N] | 3.29
156 | IVRLHDMISEEGFHYLVFDLVTGG [S7M] | 3.09
157 | IVRLHDAISEEGFHYLVFDLVTGG [S7A] | 3.35
158 | IVRLHDEISEEGFHYLVFDLVTGG [S7E] | 2.24
